Here are results for two variants from IntAct's records for PubMed 21185211.

The chains are these.
B1: Septin-4 (Homo sapiens), O43236-6 (parent)
chain: MIKRFLEDTTDDGELSKFVKDFSGNASCHPPEAKTWASRPQVPEPRPQAPDLYDDDLEFRPPSRPQSSDNQQYFCAPAPLSPSARPRSPWGKLDPYDSSEDDKEYVGFATLPNQVHRKSVKKGFDFTLMVAGESGLGKSTLVNSLFLTDLYRDRKLLGAEERIMQTVEITKHAVDIEEKGVRLRLTIVDTPGFGDAVNNTECWKPVAEYIDQQFEQYFRDESGLNRKNIQDNRVHCCLYFISPFGHGYGPSLRLLAPPGAVKGTGQEHQGQGCH
partner: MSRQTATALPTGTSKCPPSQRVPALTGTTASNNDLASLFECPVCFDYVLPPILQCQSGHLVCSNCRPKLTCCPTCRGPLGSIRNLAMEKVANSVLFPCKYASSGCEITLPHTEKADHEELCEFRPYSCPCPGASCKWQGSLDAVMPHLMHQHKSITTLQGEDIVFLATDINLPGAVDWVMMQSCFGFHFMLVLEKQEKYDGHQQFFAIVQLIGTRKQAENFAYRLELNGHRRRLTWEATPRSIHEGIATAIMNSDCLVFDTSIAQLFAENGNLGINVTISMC

This test covers variants of B1. To be noted: with siah1_human SIAH1, Q8IUQ4.
With MIKRFLEDTTDDGELSKFVKDFSGNASCHPPEAKTWASRAQAPAPAPQAPDLYDDDLEFRPPSRPQSSDNQQYFCAPAPLSPSARPRSPWGKLDPYDSSEDDKEYVGFATLPNQVHRKSVKKGFDFTLMVAGESGLGKSTLVNSLFLTDLYRDRKLLGAEERIMQTVEITKHAVDIEEKGVRLRLTIVDTPGFGDAVNNTECWKPVAEYIDQQFEQYFRDESGLNRKNIQDNRVHCCLYFISPFGHGYGPSLRLLAPPGAVKGTGQEHQGQGCH [P40A;V42A;E44A;R46A], the “effect of a mutation on the interaction” value is “disrupting interaction”. The value for MIKRFLEDTTDDGELSKFVKDFSGNASCHPPEAKTWASRPQAPAPAPQAPDLYDDDLEFRPPSRPQSSDNQQYFCAPAPLSPSARPRSPWGKLDPYDSSEDDKEYVGFATLPNQVHRKSVKKGFDFTLMVAGESGLGKSTLVNSLFLTDLYRDRKLLGAEERIMQTVEITKHAVDIEEKGVRLRLTIVDTPGFGDAVNNTECWKPVAEYIDQQFEQYFRDESGLNRKNIQDNRVHCCLYFISPFGHGYGPSLRLLAPPGAVKGTGQEHQGQGCH [V42A;E44A;R46A] was “disrupting interaction”.
